Experimental data from US20240343800A1 (Merck KGaA, published 2024).

Legend:
[1] = target: T1, mouse ROR1 (on 4T1 cells engineered to overexpress it) (mouse, UniProt Q9Z139 30-937); assay: cell-based or functional assay
human ROR1 (on cells) [2] = target: T2, human ROR1 (on cells) (human, UniProt Q01973 30-937); assay: cell-based or functional assay
human ROR1 (on cells) [3] = target: T2, human ROR1 (on cells); assay: cell-based or functional assay; remark: listed apart in the source
human ROR1 (on cells) [4] = target: T2, human ROR1 (on cells); assay: flow cytometry, 4T1 cells overexpressing human ROR1
[5] = target: T3, cynomolgus CD3 (on cynomolgus pan-T cells) (cynomolgus, UniProt Q95LI5 22-198); assay: flow cytometry, cynomolgus pan-T cells
T3 construct: whole, on cells
T3 sequence (Q95LI5 22-198): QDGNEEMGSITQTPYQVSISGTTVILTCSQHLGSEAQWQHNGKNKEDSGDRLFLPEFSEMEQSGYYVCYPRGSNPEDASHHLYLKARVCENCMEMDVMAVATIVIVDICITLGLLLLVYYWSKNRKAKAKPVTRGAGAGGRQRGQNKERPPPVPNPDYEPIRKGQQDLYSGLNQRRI
Method: (§1) After washing twice with 200 μL of phosphate buffered saline (PBS) by centrifugation at 500×g for 5 minutes at room temperature, the cells were resuspended in 100 μL of Live/Dead fixable green working buffer (ThermoFisher Scientific, Cat No: L23101; one vial of Live/Dead fixable green powder was dissolved into 50 μL of DMSO and 1 μL of dissolved Live/Dead fixable green was added to 1 mL of PBS to prepare the working buffer). After 15-minutes of incubation at room temperature, the cells were washed twice with 200 μL of PBS by centrifugation at 500×g for 5 minutes at room temperature and resuspended in […] of 10% goat serum in BD staining buffer (BD Biosciences, Cat No: 554657). […] The plates were then covered with foil to avoid direct light and incubated for 60 minutes at 4° C. […] After incubating for 30 minutes at 4° C., the cells were washed twice with 200 μL of PBS by centrifugation at 500×g for 5 minutes at room temperature and resuspended into 100 μL of fixation buffer (BioLegend, Cat No: 420801). The samples were then analyzed on a flow cytometer for binding signal using FlowJo software. ROR and CD3 binding EC₅₀s (concentration vs mean fluorescence intensity (MFI)) for reference molecules and test bispecific TCEs were obtained using 4-parameter non-linear regression curve fitting in GraphPad Prism.

[6] = target: T1, mouse ROR1 (on 4T1 cells engineered to …); assay: cell-based or functional assay; remark: listed apart in the source
human ROR1 (on cells) [7] = target: T2, human ROR1 (on cells); assay: cell-based or functional assay; remark: listed apart in the source
human ROR1 (on cells) [8] = target: T2, human ROR1 (on cells); assay: flow cytometry, MDA-MB-231 cells
Method: as §1

[9] = target: T1, mouse ROR1 (on 4T1 cells engineered to …); assay: flow cytometry, 4T1 cells overexpressing mouse ROR1
human ROR1 (on cells) [10] = target: T2, human ROR1 (on cells); assay: cell-based or functional assay; remark: listed apart in the source
human ROR1 (on cells) [11] = target: T2, human ROR1 (on cells); assay: cell-based or functional assay; remark: listed apart in the source
human ROR1 (on cells) [12] = target: T2, human ROR1 (on cells); assay: cell-based or functional assay; remark: listed apart in the source
human ROR1 (on cells) [13] = target: T2, human ROR1 (on cells); assay: cell-based or functional assay; remark: listed apart in the source
[14] = target: T4, human CD3 (on Jurkat T cells or human CD8+ T cells) (human, UniProt P07766 23-207; P09693 23-182; P04234 22-171; P20963 22-164); assay: flow cytometry, Jurkat T cells
T4 construct: Entries are printed with signal peptides; also called huCD3; CD3ε
T4 sequence (P07766 23-207 limits assumed, chain 1 of 4): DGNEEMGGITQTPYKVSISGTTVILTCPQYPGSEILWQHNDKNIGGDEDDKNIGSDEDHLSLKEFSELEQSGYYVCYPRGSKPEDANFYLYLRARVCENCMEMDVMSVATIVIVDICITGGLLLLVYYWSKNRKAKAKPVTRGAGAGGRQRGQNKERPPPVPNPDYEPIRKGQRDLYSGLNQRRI
T4 sequence (P09693 23-182 limits assumed, chain 2 of 4): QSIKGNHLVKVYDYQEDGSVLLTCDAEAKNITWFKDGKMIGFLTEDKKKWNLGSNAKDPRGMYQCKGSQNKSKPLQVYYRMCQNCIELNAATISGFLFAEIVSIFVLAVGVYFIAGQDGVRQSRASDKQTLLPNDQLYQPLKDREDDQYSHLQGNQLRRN
T4 sequence (P04234 22-171 limits assumed, chain 3 of 4): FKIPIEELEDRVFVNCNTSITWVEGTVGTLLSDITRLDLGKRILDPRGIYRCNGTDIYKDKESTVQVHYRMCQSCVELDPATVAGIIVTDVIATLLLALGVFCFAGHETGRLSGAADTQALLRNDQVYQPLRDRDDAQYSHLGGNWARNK
T4 sequence (P20963 22-164 limits assumed, chain 4 of 4): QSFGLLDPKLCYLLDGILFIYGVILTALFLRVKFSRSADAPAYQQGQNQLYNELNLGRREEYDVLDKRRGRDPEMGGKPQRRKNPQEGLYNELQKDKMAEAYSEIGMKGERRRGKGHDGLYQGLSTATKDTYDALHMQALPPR
Method: as §1

human ROR1 (on cells) [15] = target: T2, human ROR1 (on cells); assay: cell-based or functional assay; remark: listed apart in the source
[16] = target: T5, chimeric CD3ε of human CD3 knock-in C57BL/6 mice (ectodomain of human CD3, transmembrane and cytosolic … (human; mouse, UniProt P07766 23-126; P22646 109-189); assay: flow cytometry, T cells of huCD3 knock-in C57BL/6 mice
T5 construct: extracellular domain;domain: transmembrane and cytosolic domains; On T cells isolated from the knock-in mice; also called human/mouse chimeric CD3; huCD3 knock-in
T5 sequence (P07766 other isoform, or with tags, fused parts or gaps mutant): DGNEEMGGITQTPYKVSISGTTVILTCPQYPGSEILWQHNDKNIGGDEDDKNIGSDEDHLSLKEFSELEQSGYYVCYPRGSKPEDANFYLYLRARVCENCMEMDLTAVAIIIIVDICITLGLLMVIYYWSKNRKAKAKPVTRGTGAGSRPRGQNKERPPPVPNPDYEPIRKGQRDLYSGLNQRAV
Method: (§2) The plates were then covered with foil to avoid direct light and incubated for 60 minutes at 4° C. […] After incubating for 30 minutes at 4° C., the cells were washed twice with 200 μL of PBS by centrifugation at 500×g for 5 minutes at room temperature and resuspended into 100 μL of fixation buffer (BioLegend, Cat No: 420801). The samples were then analyzed on a flow cytometer for binding signal using FlowJo software. ROR and CD3 binding EC₅₀s (concentration vs mean fluorescence intensity (MFI)) for reference molecules and test bispecific TCEs were obtained using 4-parameter non-linear regression curve fitting in GraphPad Prism.

[17] = target: T4, human CD3 (on Jurkat T cells or human …); assay: flow cytometry, human CD8+ T cells; reference: 82H02 TCE #1 and #3
Method: as §2, with “After 15-minutes of incubation at room temperature, the cells were washed twice with 200 μL of PBS by centrifugation at 500×g for 5 minutes at room temperature and resuspended in […] of 10% goat serum in BD staining buffer (BD Biosciences, Cat No: 554657). […] The plates” for “The plates”

[18] = target: T4, human CD3 (on Jurkat T cells or human …); assay: flow cytometry; reference: 69A02 and 82H02 TCEs in Format 1B
Method: as §2

[19] = target: T4, human CD3 (on Jurkat T cells or human …); assay: flow cytometry; reference: 69A02 and 82H02 TCEs in Format 1A
Method: as §2

[20] = target: T4, human CD3 (on Jurkat T cells or human …); assay: flow cytometry, human CD8+ T cells
Method: as §2, with “After 15-minutes of incubation at room temperature, the cells were washed twice with 200 μL of PBS by centrifugation at 500×g for 5 minutes at room temperature and resuspended in […] of 10% goat serum in BD staining buffer (BD Biosciences, Cat No: 554657). […] The plates” for “The plates”

B1: bispecific TCE 82H02 in Format 1B (bispecific antibody)
chain 1: EIVLTQSPATLSLSPGERATLSCRASQSVSSYLAWYQQKPGQAPRLLIYDASNRATGIPARFSGSGSGTDFTLTISSLEPEDFAVYYCQQRSNWPPCTFGQGTRLEIKGGGGSGGGGSGGGGSGGGGSEVQLLESGGGLVQPGGSLRLSCAASGFTFTSYAMSWVRQAPGKGLEWVSTISGSGGGTYYTDSVKGRFTISRDNSKNTLYLQMNSLRAEDTAVYYCAQGSSIFDYWGQGTLVTVSSEPKSSDKTHTCPPCPAPEAAGGPSVFLFPPKPKDTLMISRTPEVTCVVVDVSHEDPEVKFNWYVDGVEVHNAKTKPREEQYNSTYRVVSVLTVLHQDWLNGKEYKCKVSNKALGAPIEKTISKAKGQPFRPEVHLLPPSREEMTKNQVSLTCLARGFYPKDIAVEWESNGQPENNYKTTPSRQEPSQGTTTFAVTSKLTVDKSRWQQGNVFSCSVMHEALHNHYTQKTISLSPGKGGGGSGGGGSGGGGSGGGGSEVQLVESGGGLVQPGGSLRLSCAASGFTFNTYAMNWVRQAPGKGLEWVARIRSKYNNYATYYADSVKDRFTISRDDSKNTLYLQMNSLRAEDTAVYYCVRHGNFGNSYVSWFAYWGQGTMVTVSSASTKGPSVFPLAPSSKSTSGGTAALGCLVKDYFPEPVTVSWNSGALTSGVHTFPAVLQSSGLYSLSSVVTVPSSSLGTQTYICNVNHKPSNTKVDKKVEPKSC
chain 2: EIVLTQSPATLSLSPGERATLSCRASQSVSSYLAWYQQKPGQAPRLLIYDASNRATGIPARFSGSGSGTDFTLTISSLEPEDFAVYYCQQRSNWPPCTFGQGTRLEIKGGGGSGGGGSGGGGSGGGGSEVQLLESGGGLVQPGGSLRLSCAASGFTFTSYAMSWVRQAPGKGLEWVSTISGSGGGTYYTDSVKGRFTISRDNSKNTLYLQMNSLRAEDTAVYYCAQGSSIFDYWGQGTLVTVSSEPKSSDKTHTCPPCPAPEAAGGPSVFLFPPKPKDTLMISRTPEVTCVVVDVSHEDPEVKFNWYVDGVEVHNAKTKPREEQYNSTYRVVSVLTVLHQDWLNGKEYKCKVSNKALGAPIEKTISKAKGQPREPQVYTLPPPSEELALNELVTLTCLVKGFYPSDIAVEWLQGSQELPREKYLTWAPVLDSDGSFFLYSILRVAAEDWKKGDTFSCSVMHEALHNHYTQKSLDRSPGK
chain 3: QAVVTQEPSLTVSPGGTVTLTCRSSTGAVTTSNYANWVQQKPGQAPRGLIGGTNKRAPGTPARFSGSLLGGKAALTLSGVQPEDEAEYYCALWYSNLWVFGGGTKLTVLGQPKAAPSVTLFPPSSEELQANKATLVCLISDFYPGAVTVAWKADSSPVKAGVETTTPSKQSNNKYAASSYLSLTPEQWKSHRSYSCQVTHEGSTVEKTVAPTECS
TDCC EC50, hCD3 KI splenocytes: mROR1+ 4T1 cells [1]: 0.0215 nM
TDCC EC50, hCD3 KI splenocytes: hROR1+ 4T1 cells (human ROR1 (on cells) [2]): 0.185 nM
TDCC EC50, cynomolgus CD8+ T cells + ROR1+ MDA-MB-231 (human ROR1 (on cells) [3]): 0.0548 nM
TDCC EC50, human CD8+ T cells + ROR1+ MDA-MB-231 (human ROR1 (on cells) [3]): 0.0237 nM
EC50 (human ROR1 (on cells) [4]): 0.7 nM
EC50 [5]: 34.9 nM
IFNγ release EC50, hCD3 KI splenocytes: mROR1+ 4T1 cells [6]: 0.14 nM
IFNγ release EC50, hCD3 KI splenocytes: hROR1+ 4T1 cells (human ROR1 (on cells) [7]): > 0.3 nM
EC50 (human ROR1 (on cells) [8]): 2.23 nM
EC50 [9]: 2.01 nM
TDCC EC50, PBMCs + ROR1+ MDA-MB-231 cells (human ROR1 (on cells) [10]): 0.0766 nM
IFNγ release EC50, PBMCs + ROR1+ MDA-MB-231 cells (human ROR1 (on cells) [11]): 7.12 nM
EC50 of target cell killing (TDCC), human CD8+ T cells + ROR1+ MDA-MB-231 (human ROR1 (on cells) [12]): 0.0581 nM
IFNγ release EC50, cynomolgus CD8+ T cells + ROR1+ MDA-MB-231 (human ROR1 (on cells) [13]): 0.191 nM
IFNγ release EC50, human CD8+ T cells + ROR1+ MDA-MB-231 (human ROR1 (on cells) [13]): 0.104 nM
EC50 [14]: 67.3 nM
EC50 of IFNγ release, human CD8+ T cells + ROR1+ MDA-MB-231 (human ROR1 (on cells) [15]): 0.0889 nM

B2: bispecific reference T cell-binder (bispecific antibody)
light: ELVLTQSPSVSAALGSPAKITCTLSSAHKTDTIDWYQQLQGEAPRYLMQVQSDGSYTKRPGVPDRFSGSSSGADRYLIIPSVQADDEADYYCGADYIGGYVFGGGTQLTVLGQPKAAPSVTLFPPSSEELQANKATLVCLISDFYPGAVTVAWKADSSPVKAGVETTTPSKQSNNKYAASSYLSLTPEQWKSHKSYSCQVTHEGSTVEKTVAPTECS
heavy 1: not shown
heavy 2: QEQLVESGGRLVTPGGSLTLSCKASGFDFSAYYMSWVRQAPGKGLEWIATIYPSSGKTYYATWVNGRFTISSDNAQNTVDLQMNSLTAADRATYFCARDSYADDGALFNIWGPGTLVTISSASTKGPSVFPLAPSSKSTSGGTAALGCLVKDYFPEPVTVSWNSGALTSGVHTFPAVLQSSGLYSLSSVVTVPSSSLGTQTYICNVNHKPSNTKVDKKVEPKSCDKTHTCPPCPAPEAAGGPSVFLFPPKPKDTLMISRTPEVTCVVVDVSHEDPEVKFNWYVDGVEVHNAKTKPREEQYNSTYRVVSVLTVLHQDWLNGKEYKCKVSNKALGAPIEKTISKAKGQPREPQVCTLPPSRDELTKNQVSLSCAVKGFYPSDIAVEWESNGQPENNYKTTPPVLDSDGSFFLVSKLTVDKSRWQQGNVFSCSVMHEALHNHYTQKSLSLSPGK
chain: QAVVTQEPSLTVSPGGTVTLTCGSSTGAVTTSNYANWVQEKPGQAFRGLIGGTNKRAPGTPARFSGSLLGGKAALTLSGAQPEDEAEYYCALWYSNLWVFGGGTKLTVLSSASTKGPSVFPLAPSSKSTSGGTAALGCLVKDYFPEPVTVSWNSGALTSGVHTFPAVLQSSGLYSLSSVVTVPSSSLGTQTYICNVNHKPSNTKVDKKVEPKSC
notes: ROR1 x CD3 bispecific of four polypeptides
EC50 [16]: 259 nM
fold lower affinity [17]: ~100 fold
fold lower apparent binding affinity [18]: ~4 fold
fold lower apparent binding affinity [19]: ~15 fold
EC50 [14]: 157 nM
EC50 [20]: 266 nM
